Source: US7572574B2, “Method of measuring neprilysin activity” (Riken, priority 2002, dated 2009)

Target: T1, neprilysin (Mus musculus, UniProt Q61391)
T1 construct: endogenous in cells; host or cells: mouse fetal cerebral cortex and hippocampus primary cultured nerve cells, paraformaldehyde-fixed
T1 sequence (Q61391 1-750): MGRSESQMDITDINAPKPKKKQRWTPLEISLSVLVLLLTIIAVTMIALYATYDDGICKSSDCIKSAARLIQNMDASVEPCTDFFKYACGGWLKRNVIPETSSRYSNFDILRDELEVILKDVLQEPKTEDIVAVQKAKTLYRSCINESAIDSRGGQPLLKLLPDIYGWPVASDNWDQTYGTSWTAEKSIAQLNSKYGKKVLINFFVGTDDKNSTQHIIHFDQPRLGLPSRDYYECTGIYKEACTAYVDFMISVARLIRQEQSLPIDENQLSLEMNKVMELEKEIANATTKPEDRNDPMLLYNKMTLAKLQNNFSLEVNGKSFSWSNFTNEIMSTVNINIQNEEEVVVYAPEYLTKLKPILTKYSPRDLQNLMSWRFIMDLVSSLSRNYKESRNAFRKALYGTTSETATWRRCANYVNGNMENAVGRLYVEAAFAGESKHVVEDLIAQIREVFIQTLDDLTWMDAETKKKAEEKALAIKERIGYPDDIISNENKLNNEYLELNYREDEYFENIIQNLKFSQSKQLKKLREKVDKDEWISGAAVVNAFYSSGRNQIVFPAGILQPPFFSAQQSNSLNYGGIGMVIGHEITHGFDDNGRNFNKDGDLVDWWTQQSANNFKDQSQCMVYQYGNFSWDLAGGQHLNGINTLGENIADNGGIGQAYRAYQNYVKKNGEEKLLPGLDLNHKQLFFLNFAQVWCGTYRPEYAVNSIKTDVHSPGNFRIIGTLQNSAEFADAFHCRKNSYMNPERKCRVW
Assay: Neprilysin activity staining in mouse primary cultured nerve cells (fluorescent substrate, confocal microscopy)
Type: cell-based
Conditions: for action against the neprilysin activity or its gene expression: general statement in the description
Procedure: Nerve cells were prepared from the mouse fetal cerebral cortex and hippocampus and seeded on a poly-L-coated chamber slide (8 chambers, IWAKI 4730-040) at a density of 1×10^5 cells/chamber, followed by incubation for 7 days. After completion of the incubation, the cells were washed with TBS (pH 7.4) and fixed for 12.5 minutes at 20° C. with a paraformaldehyde solution (1.5% paraformaldehyde/50 mM phosphate buffer, pH 6.8). After the cells were washed twice with TBS, 0.2 ml of substrate solution (glutaryl-alanyl-alanyl-phenylalanyl-4-methoxy-2-naphthylamide, Sigma G3769, fmal concentration: 0.5 mM; 0.05 M Tris-HCI buffer, pH 7.4 (pH was adjusted to 7.4 at 4° C.)) was added to the cells, followed by reacting at 4° C. for 48 hours. After completion of the reaction, 25 μl of the solution mixture of aminopeptidase (Sigma L-5006, final concentration: 20.4 μg/ml) and phosphoramidone (Peptide Inst. 4082, final concentration: 10 μM) and 25 μl of nitrosalicylaldehyde solution (6 mM) were further added thereto sequentially. The mixture was reacted at 37° C. for 30 minutes. The reaction was completed by washing the cells twice with TBS. Using argon laser and a filter for rhodamine, positive stained images were observed under a confocal laser scanning microscope (FIG. 1). When the substrate is degraded by neprilysin, an insoluble fluorescent reaction product is formed so that the sites where neprilysin is present are visualized in yellow.
Nerve cells were prepared from the mouse fetal cerebral cortex and hippocampus, followed by incubation as in EXAMPLE 1. On day 7 of the incubation, somatostatin (somatostatin 14 and 28, final concentration: 1 μM) was added to the cells, followed by incubation for further 24 hours. […] To investigate in further detail, these stained images were quantified by image analysis software (Nippon Roper Co., Ltd., MetaVue) and examined.

Substance	action against the neprilysin activity or its gene expression	neprilysin activity in the nerve cells compared to control added with no peptide (mouse fetal cerebral cortex and hippocampus primary nerve cells, peptide final concentration 1 μM, 24 hours, stained images observed)
PACAP: pituitary adenylate cyclase-activating polypeptide, publicly known neuropeptide	inhibitorily acts	markedly decreased
VIP: vasoactive intestinal peptide, publicly known neuropeptide	inhibitorily acts	–
